Test results from the supplement of paper PMC10567573.

B1: PLD5 (parent)
chain: WIVDKQHVYIGSAGLDWQSLGQMK
B2: KLHDC10 (parent)
chain: PSLLELAWEKLLAAFPNLANLSRT

Variants of: B1
Experiment: protein stability index of a GFP-peptide fusion (GPS, HEK-293T) (PSI 1-6); higher = more stable
Conditions: c terminus: a fixed tail appended
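Also: lentivirally expressed fusions sorted by FACS into six bins by GFP to DsRed ratio, PSI derived from sequencing read proportions per bin multiplied by bin number.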

Protein stability index, by site and new letter:
I2: L 1.88 | H 1.88 | G 1.87 | R 2.17 | S 2.08 | V 1.39 | D 2.16 | F 1.64 | N 1.61 | Y 1.82 | W 1.86 | E 2.18 | M 1.5 | A 2.32 | C 1.83 | T 1.46 | P 2.65 | K 1.9 | Q 2.48
V3: A 1.86 | D 2.02 | F 1.96 | E 2.09 | C 1.6
W1: Q 2.5 | F 2.4 | H 2.12 | D 2.15 | E 2.24 | P 2.32 | I 3.17 | C 1.59 | V 1.79 | G 2.67 | N 2.19 | R 2.77 | L 2.12 | T 2.41 | Y 2.23 | S 2.2 | K 2.32 | A 2.11 | M 1.43

Variants of: B2
Experiment: as above
Conditions: c terminus: a fixed tail appended

Protein stability index, by site and new letter:
F15: I 1.39 | T 2.1 | S 1.92 | C 1.78 | P 2.49 | H 2.06 | V 2.38 | D 2.3 | M 2.06 | R 2.11 | G 2.08 | N 2.31 | E 2.36 | K 1.78 | A 2.23 | W 2.4 | Y 1.7 | L 2.16 | Q 2.52
R23: P 1.99 | W 2.34 | K 2.16 | Q 2.1 | M 1.87 | T 2.22 | N 2.17 | F 1.96 | C 1.98 | V 2.33 | G 2.76 | D 1.28 | I 1.78 | E 1.87 | Y 1.67 | L 2.42 | A 1.55 | H 2.02 | S 1.55
K10: W 2.53 | Y 1.75 | E 1.57 | L 2.42 | Q 1.95 | R 1.9 | C 1.63 | V 2.07 | M 2 | A 1.84 | S 1.72 | D 1.84 | I 1.7 | T 1.69 | P 1.64 | G 1.93 | N 1.48 | H 2.09 | F 2.25
E9: Q 2.34 | W 1.14 | P 2 | R 2.37 | T 2.39 | S 2.35 | Y 1.59 | V 1.72
L12: I 2.12 | Y 1.76 | W 1.71 | S 1.9 | F 2.3 | Q 2.23 | V 2.44 | R 1.88 | T 2.37 | D 3.04 | M 1.85 | G 2.66 | E 2.66 | P 2.17 | K 3.22 | N 2.32 | C 1.83 | A 2.52 | H 2.33
S22: C 2.34 | I 2.28 | F 2.46 | G 1.9 | K 2.57 | E 2.59 | N 2.23 | A 2.81 | R 2.71 | Y 1.81 | M 2.02 | V 1.78 | W 2.21 | D 1.95 | L 2.4 | H 2.11 | Q 2.38 | P 2.21 | T 2.3
L18: P 2.15 | F 2.52 | E 2.35 | I 2.08 | W 1.82 | H 1.84 | G 2.56 | N 2.97 | Q 2.35 | Y 1.86 | D 2.1 | V 1.81 | S 2.01 | C 2.23 | K 1.78 | M 1.84 | T 1.96 | R 1.73 | A 2.15
N17: I 2.01 | S 2.29 | C 1.81 | Y 2.44 | G 3.66 | R 2.09 | T 1.8 | D 2.03 | E 1.62 | M 2.56 | H 2.13 | P 1.97 | L 2.15 | Q 1.94 | A 2.5 | V 2.18 | F 2.25 | K 1.43 | W 2.94
L11: E 2.55 | D 2.14 | C 1.88 | G 1.69 | S 2.2 | K 1.62 | Q 2.19 | V 2.5 | T 1.92 | F 2.29 | H 1.92 | R 2.07 | N 2.26 | M 1.6 | Y 2.19 | A 2.36 | I 2.23 | W 2.06 | P 2.39
A19: Y 2.02 | I 2.32 | W 1.57 | Q 2.37 | V 2.3 | T 1.77 | R 2.4 | S 2 | D 2.46 | K 1.95 | P 2.29 | N 2.29 | F 2 | H 1.93 | C 2.04 | G 2.17 | M 2.1 | L 1.8 | E 2.31
A14: M 2.19 | Q 2.05 | L 2.75 | T 2.2 | D 2.19 | E 2.11 | V 2.4 | Y 3 | H 2.15 | S 2.86 | P 2.07 | K 2.1 | I 2.83 | C 2.58 | N 2.2 | W 3.3 | R 1.87 | G 1.81 | F 2.82
T24: D 2.79 | R 2.6 | C 1.6 | E 2.22 | V 2.29 | K 2.25 | Q 1.56 | N 2.23 | L 1.85 | I 2.03 | Y 2.32 | H 2.56 | P 2.44 | M 2.17 | S 2.14 | A 2.34 | W 2.28 | F 2.06 | G 2.17
P16: Q 2.12 | G 1.25 | E 1.45 | C 2.23 | W 2.35 | A 1.84 | Y 2.06 | I 1.63 | M 2.62 | N 2.03 | L 1.78 | F 1.51 | S 1.4 | T 2.01 | H 1.55 | V 3.1 | D 2.2
N20: K 1.49 | R 1.89 | W 2.04 | H 2.46 | T 1.62 | Y 2.22 | F 2.17 | I 2.24 | G 2.12 | L 1.77 | Q 2.09 | C 2.68 | A 2.08 | P 1.89 | E 2.25 | D 1.51 | V 2.47 | M 3.12 | S 2.59
L21: A 2.14 | S 2.17 | F 2.54 | Q 2.05 | G 2.22 | H 2.72 | I 1.76 | R 2.38 | Y 2.4 | E 1.82 | T 2.6 | N 2.52 | M 2.25 | C 2.16 | P 2.07 | W 2.6 | D 2.33 | V 2.35 | K 2.38
A13: M 2.51 | G 2.06 | S 2.28 | D 2.12 | H 2.83 | I 2.46 | K 1.95 | Y 1.85 | Q 2.25 | W 1.64 | P 1.86 | N 2.04 | V 1.79 | R 1.8 | C 2.01 | E 1.99 | T 2.2 | F 1.46 | L 1.74
